In the DeepSol protein solubility set:

Experiment: soluble on expression in E. coli; label from the status in PepcDB or PDB records

Sequence	soluble on expression in E. coli
MGHHHHHHSHMAVVRATSADVDLMARLLRAEAEGEGKQGMLLVGNVGINRLRANCSDFKGLRTIRQMIYQPHAFEAVTHGYFYQRARDSERALARGSINGERRWPAKFSLWYFRPQGDCPAQWYNQPFVARFKSHCFYQPTAETCENVYNTF	not soluble
MGSDKIHHHHHHVKIILRKIRTLVTHPGFRANPIAVLGRCAALLGRVALGRPFVFSLTPAGERLRVDANLRYTTVTTFVMRDHLEPELHYLAHLLAPGDTFIDIGANVGVYSLRAATLVGAAGRVIAVEPGRDALTALRANLALNPGRTITVVAAALSDHIGTATLYHVGNGYDPQAFSLLSDETAKDAETVPLTTLDAVCADLAIDRLDCLKMDAEGVEPMVLAGGRATLERFHPAVILEMNTAILERRGSPTDQAWTFLAGLGYGFHRILGGRPVRLTAPPDDFCNVIATHPANEKIG	not soluble
STTLTHRARRTEISKNSEKKMESEEDSNWEKSPDNEDSGDSKDIRLTLMEEVLLLGLKDKEGYTSFWNDCISSGLRGGILIELAMRGRIYLEPPTMRKKRLLDRKVLLKSDSPTGDVLLDETLKHIKATEPTETVQTWIELLTGETWNPFKLQYQLRNVRERIAKNLVEKGILTTEKQNFLLFDMTTHPVTNTTEKQRLVKKLQDSVLERWVNDPQRMDKRTLALLVLAHSSDVLENVFSSLTDDKYDVAMNRAKDLVELDPEVEGTKPSATEMIWAVLAAFNKS	soluble
KSGKEAGSQIMKFEVQDASPTIATELNLVTGEQVYYIKRLRFIEDNAAQLEETWMSVARFPDLTVSHMQKSKFSYIENECGIKIIGTFETFSPTFPTPEIASILRISPRDPILKIQTQAVDSNSIPLDYSLLYSNIFEFQVKYFFPR	not soluble
MKGITSLGSKWFVEFEKNNVHNVYDRIAEHFTKTRYRIWPGVELFLKQTSPLDTVLDVGCGNGKNLISYRNLFCIGIDRCVPLVKTCKQRQLETAVADILELPFQSEKFDIVLCIAVLHHLCTRERRILAIQELGRVLRPGGSCLLYVWAANENDGKDEVKNTKAREKMRFLDENKQEALIPWVVIDHEKKATQLEKNLKQPSTFTLERYYHLYRQGELEEECLQSNCFHIQHSYYEQSNWCVVLDKKS	soluble
MTTIGTRKRVAVVTGASSGIGEATARTLAAQGFHVVAVARRADRITALANQIGGTAIVADVTDDAAVEALARALSRVDVLVNNAGGAKGLQFVADADLEHWRWMWDTNVLGTLRVTRALLPKLIDSGDGLIVTVTSIAAIEVYDGGAGYTAAKHAQGALHRTLRGELLGKPVRLTEIAPGAVETEFSLVRFDGDQQRADAVYAGMTPLVAADVAEVIGFVATRPSHVNLDQIVIRPRDQASASRRATHPVR	not soluble
MSLNISFIASNTLHELAAFLEKLNNIREHHVGFCGEKGSEIKATLERDFSDIGVSKSFIVGYDGMEIKGAVGLDVDTKEESAEVWGPFVDEDDPEMWLDTATILWQQLIDSLTVPVSTFQFFINQHNVNAKKFILKLNGMEKGDHDILTCDRTQFYPPLNHDVRLFTNNHTQSFKKLHDSLFPQTYYDAEEILKKINEPTNKLLIIEKEQIVIGYAYVEVEPEHGEGQIEYIGIAPDYRRQGLATQLLTNALHVLFSYPTVEDITLCVSKQNTKAIRLYQAAGFKKERQLTYFELNVDGLDNRRGRGEGHHHHHH	soluble
MGSDKIHHHHHHMTNFPPLLLAYGLDLEGPIHRGIATYAKAMIRLLHQSGYPLHLLTGAGGLAQGRLASLSLHRHLDQPSNWSRIQLAQSYFAERLGRSRQTPIKVDSNLIIGDRIQYLQQIDQLINHPFFYRKLRLQAKISDRPFFLKTKNYPVVLTSSPLNLRVSSSSRLIQVIHDLIPLNYLRHPDEAVTFLRRLQATADYSDRIICLSETTRQQFLELFPQAESRTLTLYQPVSFSAEALALTDRPDFAAAVLRRYGLERDRYFFFVGAIEPRKNLETLIAAQQVAVLRTQLPLVIGGTADVHTQDYAQQLQQRSRSTDQILWTGYLTEAEKICLLRHCRALTFLSWQEGFGIPMIEAALCGRSSLLANIPVLREVMGAAATYANPQHPLEVADQLIQLGCYPAQLSELRSRATQQIQAFADGQVQQQIQQVLQSLIS	not soluble
MSLSQRTDCSLARRSSTVRKQDSSQAIPLVVESCIRFISRHGLQHEGIFRVSGSQVEVNDIKNAFERGEDPLAGDQNDHDMDSIAGVLKLYFRGLEHPLFPKDIFHDLMACVTMDNLQERALHIRKVLLVLPKTTLIIMRYLFAFLNHLSQFSEENMMDPYNLAICFGPSLMSVPEGHDQVSCQAHVNELIKTIIIQHENIFPSPREEGHHHHHH	soluble
MGSDKIHHHHHHMSSVGDFEEIILHDLKPYYHVPGAIHSEGITFVKETGTLLWVDIFKGEVHKVEDIEQPESSHSFFSISRANYGKNASIEYPPNPDELKESVGCIFPILDGASQNEIKQVLFGSKFGIGKLDFSKSEWEYVILYSECPELSTDRAYKLRSNDGNVSPDGKYIYVGLMSDFPFDLEPIGCLLRVDLLAHKIELVWNCLLIPNAIHWDESDQKTMYVTDSLNFTIWKCPGGDLLKRDELIDVKNSNNQSFESPEPDGSAIWFSKDGKHSGFLFITVWSTSKVQMFDLTNGKLLKEFILPEQTPRVSCCCFVGKDLFVTTANAEINDAVRTNTDKNGGCIYKIPNVLDGNVPLESTKRQPLH	not soluble
MKGERLDKVLARLGLGSRKEVARLVRQGKVRVLGQVVKDPGFRVPEGAALEVEGRPLEVRRHLHVLLHKPPGFVTSRTEGPSVYALLQGFPTRDLSPVGRLDKDAEGLLLFTTDGLLLHRLTHPRHKVAKRYLVHLERPVGPKDQEAFREGILLDGKKTLPAELTPLEDPTWAEVVLKEGRFHQIKRMFRARGNRVLRLKRLALGPLELGDLPPGKARPLTEAEEKALYAAVGLGGEDPEDEV	soluble
GEFLISILEAIEPEVVYAGYDNSQPDTTNYLLSSLNRLAGKQMVSVVKWAKALPGFRNLHLDDQMTLIQYSWMSLMAFSLGWRSYKHTNGQMLYFAPDLIFNEERMQQSAMYDLCQGMRQISQEFVRLQVTYEEFLCMKVLLLLSTVPKDGLKSQASFDEMRMNYIKELRRAIAKKENNSSQNWQRFYQLTKLLDSMHDLVGGLLQFCFYTFVQSQALSVEFPEMLVEIISDQLPKVMAGMAKPLLFHKK	soluble
EFELKDFHVDYSISHPQSQHIQIIVCFKAQDKHEANAGRYRRIKPAWCTTEDGEHVIYYRISASRVDHDITTKYAFLDRDGKPKQIHHSEKLAVELMTLHPVIRLRDSRRFPRPSHINGDSKNARIEKRINNTCRRLLAMPGHVNKGEIRSSLDAMKTLVEHYFAFRSIGKGNPRKPRDGLFYTSPSSDKGLSQYLKETNDKQSRLLLMGLLSAYLQAKGPTDLRRCARPILIIEDPEGRLHPTHLARAWSLLQLLPMQK	not soluble
MRNFTRTLEPEGITEMPQEGLRFVVQHHLARRDHYDLRLEWDGAMLSWAVPKGPSYNTWDKRLAVQVEDHPLEYRHFEGTIPKGEYGGGVVMLWDEGFWEPYVDVDGGLHEGMLKFVLKGRRLKGRWALVRMKGKAGDKKDNWLLLKEKDDYVQTADGISQFTTSLEHHHHHH	soluble
MGETKADFRDMSRIPKVREGFYATNNQFQKAGPKGFVQVKVLENDNLYVRVDLPGVPDDAVRYRVDAVRQKVVFFSGETLNNGKEGVRQYSGTAGLGCDCCEITGVDAKMKDGVLRMILTRVKVVSKAQDNNNNKCTLTVPPFTGQSGIRLEDHPCLVSGRKGALIGVTKAGGGAHFAVDMPGVSPDDVEVYADEKEIRFKAEIKDVYEHDESGRTYLGSVQSPFPALISNNTIAWDAEFGVLRIAVIPPDDMTTINNKRNPIE	soluble
PAPTPSSSPVPTLSPEQQEMLQAFSTQSGMNLEWSQKCLQDNNWDYTRSAQAFTHLKAKGEIPEVAFMK	soluble
MSNTMQGAHYPQMAFDPTWQMHPAYATATAFNPYNVSFDFTRSPNTSGGSDESMSDGSKIDPKRSPKYLEKRMKNNEAAKKSRASRKHREQKNQTENELLKRKNAALEEELKQAKCELAQMQITIRDMSIEREAYRRENEMLKMVNNKFADSKFEPPQPLRDMTNCNLPYKYELLS	not soluble
MSEPISPRTPQQALAALLARYAPKHLLLVGASRLPAVEAFIHNHPQCQLAHSPAAALPAELAGQRFDLALFVDCLEHLPQRTGLQLLAGVRNLNASRVAVLVDLEASDWQETDFFALAMQNSERFQREGQTLTLYTYDLYEYKQVPDWLNAKFWANPENFGKYWW	not soluble
MGSDKIHHHHHHMIHTLQAQSNEITIPFAELDLLSHLTSEFEPKLFQQKIERLHQLDPGHPLPGIAKAYAFFHEQNFSAARRQLEQARSETGDHVRAHLLLGLMSEVENFQHEAERHFLDALSLFPEEPSVHRHLAVHYHEREFFGEAASHALQYLKKIGPGGEGTLMTIDMMQSMPGHDEHVLESLYSLLFEIPEHHHDMVFHSIAANNAEMRYELFHQALDGEPDEATVFRLDSMLSLMVEHSMWAAVYDQTKDRMCRTVFDTLCRDLTYRHAGIRSIPLYLTIRSRYFMRCLLHRS	not soluble
GPGSMTIDAVSPLFADISREYGAAFDAAIARNVADALAEDVGSGDQTGRLVPDGAPRRARVIVREDAVLCGVPWFDAVVRAVDPSIEVDWRHREGDRMSADSTVCELRGPARALLTAERNALNFLQLLSGVASATRQYVDRIADTRARILDTRKTLPGLRLAQKYAVRVGGGANQRLALYAGILIKENHIAAAGGVGEALDAAFALNAEVPVQIEVETLDQLRTALAHGARSVLLDNFTLDMMRDAVRVTEGRAVLEVSGGVNFDTVRAIAETGVDRISIGALTKDVRATDYSMRIVE	soluble
EDGYDMWLRYQPIADQTLLKTYQKQIRHLHVAGDSPTINAAAAELQRGLSGLLNKPIVARDEKLKDYSLVIGTPDNSPLIASLNLGERLQALGAEGYLLEQTRINKRHVVIVAANSDVGVLYGSFHLLRLIQTQHALEKLSLSSAPRLQHRVVNHWDNLNRVVERGYAGLSLWDWGSLPNYLAPRYTDYARINASLGINGTVINNVNADPRVLSDQFLQKIAALADAFRPYGIKMYLSINFNSPRAFGDVDTADPLDPRVQQWWKTRAQKIYSYIPDFGGFLVKADSEGQPGPQGYGRDHAEGANMLAAALKPFGGVVFWRAFVYHPDIEDRFRGAYDEFMPLDGKFADNVILQIKNGPIDFQPREPFSALFAGMSRTNMMMEFQITQEYFGFATHLAYQGPLFEESLKTETHARGEGSTIGNILEGKVFKTRHTGMAGVINPGTDRNWTGHPFVQSSWYAFGRMAWDHQISAATAADEWLRMTFSNQPAFIEPVKQMMLVSREAGVNYRSPLGLTHLYSQGDHYGPAPWTDDLPRADWTAVYYHRASKTGIGFNRTKTGSNALAQYPEPIAKAWGDLNSVPEDLILWFHHLSWDHRMQSGRNLWQELVHKYYQGVEQVRAMQRTWDQQEAYVDAARFAQVKALLQVQEREAVRWRNSCVLYFQSVAGRPIPANYEQPEHDLEYYKMLARTTYVPEPWHPASSSRVLK	soluble
MAHHHHHHMDPSVSLEGIVDLTASNFDEHVGKGVPALVEFYAPWCGHCKKMVPEFEKVGQAVKTARDKVLVGKVDATQNRDLAERFGVNGYPTILFFPADSQTKQQYSEAREAAAFLSFLNRQVPGLNIGVPHEHTYAVELTKRNFDAVVMDEAKDALVMFYAPWCGHCKKLHPVFERLATAFKEEADIVIGKLNADDASNGAVRNRYKVDGYPTLAFFQKRSKSEPQYYSGGRSLEELVEYVNERTGKNRLPSGDLSEKVGVNDELSKVLRDMMLKEKSVDEKKQYLEKVKKAAADLTGVEAVHYPRIAEKILQLGAEYVEMELGRIARLKQGDVKGEKRDMLTIRNNILASLKDE	not soluble
